Reference: publication PMC10786891, “Massively parallel profiling of RNA-targeting CRISPR-Cas13d”
Numbering of substitutions follows the chain as printed. Names may count otherwise.

T1: EsCas13d, nuclease-dead (Eubacterium siraeum, UniProt B0MS50, R295A;H300A;R849A;H854A)
T1 sequence: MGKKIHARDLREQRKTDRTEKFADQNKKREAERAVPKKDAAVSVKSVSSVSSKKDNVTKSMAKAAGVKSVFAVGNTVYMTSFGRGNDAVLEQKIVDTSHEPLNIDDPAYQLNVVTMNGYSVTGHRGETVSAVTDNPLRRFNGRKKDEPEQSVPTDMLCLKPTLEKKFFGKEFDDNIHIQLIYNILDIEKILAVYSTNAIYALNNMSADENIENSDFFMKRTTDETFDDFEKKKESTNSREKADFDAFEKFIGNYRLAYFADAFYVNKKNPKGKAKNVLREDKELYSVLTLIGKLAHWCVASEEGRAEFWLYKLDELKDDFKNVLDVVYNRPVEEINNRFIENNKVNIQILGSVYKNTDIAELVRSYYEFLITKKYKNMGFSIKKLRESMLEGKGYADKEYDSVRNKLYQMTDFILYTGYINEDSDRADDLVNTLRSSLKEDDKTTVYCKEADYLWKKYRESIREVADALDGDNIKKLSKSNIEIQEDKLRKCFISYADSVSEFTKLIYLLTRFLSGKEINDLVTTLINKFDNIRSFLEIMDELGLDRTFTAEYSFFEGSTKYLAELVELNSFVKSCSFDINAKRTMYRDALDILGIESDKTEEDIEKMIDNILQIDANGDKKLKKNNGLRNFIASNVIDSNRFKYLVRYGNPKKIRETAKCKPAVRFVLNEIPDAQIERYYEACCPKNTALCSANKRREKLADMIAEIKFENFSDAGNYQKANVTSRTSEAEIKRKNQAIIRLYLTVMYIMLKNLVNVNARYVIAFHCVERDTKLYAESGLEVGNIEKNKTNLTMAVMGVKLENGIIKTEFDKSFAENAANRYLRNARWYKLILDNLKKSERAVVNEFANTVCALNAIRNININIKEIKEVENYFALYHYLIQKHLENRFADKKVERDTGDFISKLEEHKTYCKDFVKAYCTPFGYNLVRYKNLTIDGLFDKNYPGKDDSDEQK

B1: target 3 insA 3' of 7,insU 3' of 6 (mixed)
RNA 1: CACCCGUGCAAAAUUGCAGGGGUCUAAAACGACCUGAAUAUUUCAGAUCAAA
RNA 2: GGGAAUGGAUCCACAUCUACGAAUUCGUUUUUGAUCUGAAAUAUUACUAGGUCUGCAGAUCGGAAGAGCACACGU
B2: target 3 insC 3' of 9,insU 3' of 6 (mixed)
RNA 1: B1 RNA 1
RNA 2: B1 RNA 2 with U44C, A46U
B3: target 3 insA 3' of 15,insC 3' of 2 (mixed)
RNA 1: B1 RNA 1
RNA 2: GGGAAUGGAUCCACAUCUACGAAUUCGUUUUUGAUCUAGAAAUAUUCAGGUCCUGCAGAUCGGAAGAGCACACGU
B4: target 3 U2A,U21C (mixed)
RNA 1: B1 RNA 1
RNA 2: GGGAAUGGAUCCACAUCUACGAAUUCGUUUCUGAUCUGAAAUAUUCAGGACUGCAGAUCGGAAGAGCACACGU
B5: target 3 G3C,U22A (mixed)
RNA 1: B1 RNA 1
RNA 2: B4 RNA 2 with U30A, C31U, G49C, A50U
B6: target 3 insC 3' of 11,insC 3' of 2 (mixed)
RNA 1: B1 RNA 1
RNA 2: B3 RNA 2 with A38G, G39A, A42C
B7: target 3 U2G,C6G (mixed)
RNA 1: B1 RNA 1
RNA 2: B4 RNA 2 with C31U, C46G, A50G
B8: target 3 insU 3' of 5,insC 3' of 4 (mixed)
RNA 1: B1 RNA 1
RNA 2: B1 RNA 2 with A46C, C47A, A49G, G50C
B9: target 1 U3A,U8G (mixed)
RNA 1: CACCCGUGCAAAAAUGCAGGGGUCUAAAACUGAGCGGAUAACCUCUCUAUGG
RNA 2: GGGAAUGGAUCCACAUCUACGAAUUCGUACCAUAGAGAGGUUAGCCGCACACCGAGAUCGGAAGAGCACACGU
B10: target 3 C1A,U10G (mixed)
RNA 1: B1 RNA 1
RNA 2: B4 RNA 2 with C31U, U42G, A50U, C51A
B11: target 3 insA 3' of 22,insA 3' of 3 (mixed)
RNA 1: B1 RNA 1
RNA 2: B3 RNA 2 with U31A, G33U, A34G, U35A, C36U, U37C, A38U, U51A, C52U
B12: target 3 insA 3' of 3,insA 3' of 3 (mixed)
RNA 1: B1 RNA 1
RNA 2: B1 RNA 2 with A46C, C47A, U48G, A49G, G50A, G51A
B13: target 3 insU 3' of 4,insC 3' of 3 (mixed)
RNA 1: B1 RNA 1
RNA 2: B1 RNA 2 with A46C, C47A, U48G, A49U, G51C
B14: target 3 insA 3' of 15,insG 3' of 2 (mixed)
RNA 1: B1 RNA 1
RNA 2: B3 RNA 2 with C52G
B15: target 3 G4C,A5C (mixed)
RNA 1: B1 RNA 1
RNA 2: B4 RNA 2 with C31U, A47C, G48C, A50U
B16: target 3 G3U,G4A (mixed)
RNA 1: B1 RNA 1
RNA 2: B4 RNA 2 with C31U, G48A, G49U, A50U
B17: target 3 C6A,A11G (mixed)
RNA 1: B1 RNA 1
RNA 2: B4 RNA 2 with C31U, A41G, C46A, A50U
B18: target 3 U2G,A18G (mixed)
RNA 1: B1 RNA 1
RNA 2: B4 RNA 2 with C31U, A34G, A50G
B19: target 1 insU 3' of 21,insC 3' of 1 (mixed)
RNA 1: B9 RNA 1
RNA 2: GGGAAUGGAUCCACAUCUACGAAUUCGUACCUAUAGAGAGGUUAUCCGCUCACCCGAGAUCGGAAGAGCACACGU
B20: target 3 G4U,U21G (mixed)
RNA 1: B1 RNA 1
RNA 2: B4 RNA 2 with C31G, G48U, A50U
B21: target 3 A18G,U22A (mixed)
RNA 1: B1 RNA 1
RNA 2: B4 RNA 2 with U30A, C31U, A34G, A50U
B22: target 3 insU 3' of 19 (mixed)
RNA 1: B1 RNA 1
RNA 2: GGGAAUGGAUCCACAUCUACGAAUUCGUUUUUGUAUCUGAAAUAUUCAGGUCUGCAGAUCGGAAGAGCACACGU
B23: target 3 U2G,A5U (mixed)
RNA 1: B1 RNA 1
RNA 2: B4 RNA 2 with C31U, A47U, A50G
B24: target 3 insC 3' of 7,insC 3' of 2 (mixed)
RNA 1: B1 RNA 1
RNA 2: B1 RNA 2 with A46C, U48A, A49G, G51U, U52C
B25: target 3 C1G,C6G (mixed)
RNA 1: B1 RNA 1
RNA 2: B4 RNA 2 with C31U, C46G, A50U, C51G
B26: target 3 insU 3' of 22,insU 3' of 11 (mixed)
RNA 1: B1 RNA 1
RNA 2: GGGAAUGGAUCCACAUCUACGAAUUCGUUUUUUGAUCUGAAAUUAUUCAGGUCUGCAGAUCGGAAGAGCACACGU
B27: target 3 insU 3' of 3,insG 3' of 2 (mixed)
RNA 1: B1 RNA 1
RNA 2: B1 RNA 2 with A46C, C47A, U48G, A49G, G50U, G51U, U52G
B28: target 3 A5U,U7A (mixed)
RNA 1: B1 RNA 1
RNA 2: B4 RNA 2 with C31U, U45A, A47U, A50U
B29: target 1 U10C,U19C (mixed)
RNA 1: B9 RNA 1
RNA 2: B9 RNA 2 with U33C, U42C, G44U, A49U
B30: target 3 insU 3' of 22,insC 3' of 8 (mixed)
RNA 1: B1 RNA 1
RNA 2: B26 RNA 2 with U44A, A45U, U46C
B31: target 3 insG 3' of 2 (mixed)
RNA 1: B1 RNA 1
RNA 2: GGGAAUGGAUCCACAUCUACGAAUUCGUUUUUGAUCUGAAAUAUUCAGGUGCUGCAGAUCGGAAGAGCACACGU
B32: target 3 C6A,U8A (mixed)
RNA 1: B1 RNA 1
RNA 2: B4 RNA 2 with C31U, U44A, C46A, A50U

Target: T1, EsCas13d, nuclease-dead
Assay: crRNA (strand 1, pre-loaded); Mg2+; 40 mM Tris-HCl pH 7.5, 150 mM NaCl, 6 mM MgCl2, 1 mM DTT, 0.1% Tween-20, 0.2 mg/ml BSA; 25 C; 10 min per concentration, then washed
Settings: tags: His6-TwinStrep-SUMO cleaved; N-terminal SNAP kept (SNAP-Surface 488); label: 3' end held by stalled T7 RNA polymerase

Binder	Kd
B1	17.9 ± 1.2 nM
B2	82 ± 14.5 nM
B3	~82 nM
B4	39.5 ± 11 nM
B5	16.5 ± 1.4 nM
B6	67 ± 10 nM
B7	21.8 ± 2.7 nM
B8	6.45 ± 0.65 nM
B9	11.9 ± 0.5 nM
B10	~90.5 nM
B11	22.2 ± 4.4 nM
B12	15.5 ± 1.65 nM
B13	17.4 ± 1.7 nM
B14	68.5 ± 21.5 nM
B15	130 ± 40 nM
B16	7.75 ± 1.05 nM

Binder	Kd
B17	98 ± 23 nM
B18	59.5 ± 7.5 nM
B19	20.5 ± 0.8 nM
B20	65 ± 14 nM
B21	14.8 ± 1.75 nM
B22	78 ± 29.5 nM
B23	9.2 ± 1.2 nM
B24	~120 nM
B25	18.7 ± 3.15 nM
B26	62 ± 19.5 nM
B27	27 ± 4.5 nM
B28	62.4 ± 5.4 nM
B29	70 ± 12 nM
B30	106 ± 32 nM
B31	37.1 ± 3.7 nM
B32	59 ± 8.5 nM
